Experimental data reported in patent publication EP0935607B1.

Columns and labels:
[1] = target: detergent soluble DR2 purified from an EBV transformed B cell line (human) (UniProt P01903); test: time course ELISA at 37°C, 200 nM DR2, 2 µM peptide, L243 capture
[2] = target: recombinant HLA-DR2 fusion protein (DRα-Fos / DRβ-Jun heterodimer, DRA*0101 / DRB1*1501) secreted by Pichia pastoris (human); test: as above

biotinylated MBP(85-99) peptide, biotin-SGSG-MBP(85-99) (from UniProt P02686 85-99)
time to plateau of binding [1]: > 48 h
time to 50% maximum binding [2]: 3 h
time to plateau of binding [2]: 18 h
